Here are results for 1 molecule from patent US7202089B2, “Early diagnosis of stroke” (priority 2001, dated 2007).

This test is described as follows: Fatty acid binding of fluorescently labeled I-FABP probes (fluorescence ratio). As to conditions: FFA binding; ADIFAB2 compared with ADIFAB. The procedure: In a preferred embodiment, a fluorescently-labeled FABP is acrylodan-derived recombinant rat intestinal fatty acid binding protein (referred to as ADIFAB). Derivatization with acrylodan was performed using known methods substantially as previously described (U.S. Pat. No. 5,470,714 & Richieri, G. V, et al., J. Biol. Chem., (1992) […]: 23495–23501), and ADIFAB is commercially available (FFA Sciences LLC, San Diego, Calif. ). Concentrations of FFAu can be determined by the binding of the FFAu to the fluorescently labeled fatty acid binding protein (FABP). […] The concentration of FFAu can be determined from the fluorescence difference. […] It will be understood that those skilled in the art can readily substitute other fluorescently-labeled FABP in the disclosed assay.
The assay for determination of FFAu levels in aqueous samples measures the intensity of a shift in fluorescence from a first wavelength, at which the derivatized FABP fluoresces when no FFA is bound, to a second wavelength, at which the derivatized FABP fluoresces when a molecule of FFA is bound, and the concentration of FFAu is then determined from the ratio (“R” value) of the two intensities of fluorescence wavelengths as described in U.S. Pat. No. 5,470,714 and Richieri, et al. (1995) J. Lipid Research, vol. […] Briefly, the ratio is calculated using the following formula: […]

B1: ADIFAB2: acrylodan-derivatized rat intestinal fatty acid binding protein (I-FABP) with substitution of Ala for Leu at position 72 (protein, UniProt P02693 2-132, looked up, variant L72A)
Fatty acid-binding protein, …: AFDGTWKVDRNENYEKFMEKMGINVVKRKLGAHDNLKLTITQEGNKFTVKESSNFRNIDVVFELGVDFAYSAADGTELTGTWTMEGNKLVGKFKRVDNGKELIAVREISGNELIQTYTYEGVEAKRIFKKE
modifications: acrylodan label
Consider B1, for which the “binding affinities relative to ADIFAB” value is given as “about 10 fold”.
